Assay results: patent US20220073643A1
Residue numbers refer to the chain shown, from its start.

B1: 257G7F7 (antibody, V domains shown)
VH: QAYLQQSGAELVRSGASVKMSCKASGYTFTSHNLHWVKQTPGQGLEWIGYIYPGNGNTNYNQKFKGKATLTADTSSSTAYMQISSLTSEDSAVYFCTRDYYGNSFAYWGQGTLVTVSA
VL: DIVMTQSPSSLTEKAGERVSMSCKSSQSLFNSGNQKNYLTWYQQKPGQPPKLLIYWASTRESGVPDRFTGSGSGTDFTLTISSVQAEDLAVYYCQNNYWFPFTFGAGTKLELK
B2: 194A2F7 (antibody, V domains shown)
VH: QIQLVQSGPELKKPGETVKISCKASGYTFTDYLIHWVKQAPGKGLKWMGWINTETGEPTYADDFKGRFALSLETSASTACLQINNLKNEDTATYFCARIYYGNSFDYWGQGTTLTVSS
VL: DIVMTQSPSSLPVTAGEKVTMTCKSSQNLLNSGNQKSYLTWYQQKPGQPPKLLIYWASTRETGVPDRFTGSGSGTDFTLTISSVQAEDLAVYYCQNAYRFPFTFGAGTRLELK
B3: 258D11C4 (antibody, V domains shown)
VH: B1 VH with T30S, L34M, N57G
VL: B1 VL with E61Q, N97D
B4: 259B4D4 (antibody, V domains shown)
VH: EIQLQQSGPELMKPGASVRISCKASGYSFTSYYMHWMKQSHVKSLEWIGYIDPFNGNTRYNQKFKDKATLTVDKSSTTAYMHLSSLTSEDSAVYFCASLRFFAYWGQGTLVTVSA
VL: DIVMTQSPSSLTVTAGEKVTMSCNSSQSLLNSGNQKNYLTWYQQKPGQPPKLLIYWASSRESGVPDRFTGSGSGTDFTLTISTVQAEDLAVYYCQNDYSFPLTFGAGTRLELK
B5: 260F8A6 (antibody, V domains shown)
VH: B1 VH with K23R, L34M, N59Y, S77N, S84N, T97V, A106V
VL: B1 VL with I2V, A15T, R18K, F30L, T69I, V84L, A86T, W99M, F100Y
B6: 260G9E8 (antibody, V domains shown)
VH: B1 VH with Y3D, T30A, L34M, N57G, N59K, K65T, S84T, T97A
VL: B1 VL with R18K, S22R, F30L, E87D, N97D, W99M
B7: 262H9H6 (antibody, V domains shown)
VH: B1 VH with L34M, Y52S, N57Y, K65R, A106T
VL: B1 VL with D76E
B8: 263E9F3 (antibody, V domains shown)
VH: EIQVQQSGPELMKPGASVKISCRSSGYSFTSYYIHWVKQSRGKSLEWIGYIDPFSGGTRYNQKFEGKATLTVDKSSTTAYMHLSSLTSEDSAVYYCASLRFFAYWGQGTLVTVSA
VL: DIVMTQSPSSLTVTAGEKVTMTCKSSQSLLNSGNQENYLTWYQQKPGQPPELLISRASTRQSGVPDRFTGSGSGTDFTLTISSVQTEDLAVYYCQNDYSYPLTFGAGTKLELK
B9: 265E6G2 (antibody, V domains shown)
VH: B1 VH with H32Y, L34M, N57G, T97A
VL: B4 VL with I2L, N24K, S59T, T83N, V84I, F100Y, T103P, R109K, K113R
B10: 266B11F7 (antibody, V domains shown)
VH: QVQMKESGPGLVAPSQSLSITCTVSGFSLTTYGVTWVRQPPGKGLEWLGVIWGDGSTNYHSALTSRLRISKDKSKSQVFLKLSSLQTDDTATYYCAKPGRGNALDYWGQGTSVTVSS
VL: B4 VL with S22R, N24K, I54V, S59T, I81V, T83S, S99I, R109K
B11: 267B2C5 (antibody, V domains shown)
VH: QVQLKESGPGLVAPSQSLAITCTVSGFSLTTYGVSWVRQPPGKGLEWLGVIWGDGSTHYHSALISRLSIRKDNSKSQVFLKVNSLQTDDTATYYCGKPGRGNAMDYWGQGTSVTVSS
VL: B4 VL with N24K, P49S, S59T, T83S, S99I, F100Y, A106G, R109T
B12: 267H5F12 (antibody, V domains shown)
VH: B1 VH with L34M, Y52S, N57Y, K65R, A106T
VL: B1 VL with D76E
B13: 273C10E5 (antibody, V domains shown)
VH: QVQLQQSGAELVKPGASVKLSCKASGYTFTSFGINWLRQRPEQGLEWIGWIFPGDGNSKYNENFKGKATLTTDKSSSTAYMQVTRLTSEDSAVYFCARFYYGNSFANWGQGTLVTVSA
VL: B4 VL with N24K, S58A, S59T, T69A, T83S, S99F, F100Y, L102F, R109K
B14: 273F3D4 (antibody, V domains shown)
VH: B11 VH with A19S, S28A, V82L, G96A
VL: B4 VL with T5S, N24K, P49S, S59T, T83S, V84M, S99I, F100Y, R109M
B15: 275B2G2 (antibody, V domains shown)
VH: EVMLVESGGGLVKPGGSLKLSCAASGFTFRDYTMSWVRQTPEKRLEWVATSIIGGTYTYYPDSVKGRFTISRDNVKNTLYLQMSSLRSEDTAMYYCSRLGRGNAMDYWGQGTSVTVSS
VL: B4 VL with N24K, S59T, T83S, F100Y, L102F, A106S, R109K, L112I
B16: 275H9A2 (antibody, V domains shown)
VH: B1 VH with K23R, T28S, L34M, N57G, T58S, N59Y, T69I, A106V
VL: B1 VL with I2V, A15T, R18K, F30L, V84L, A86T, Y98F, W99R, F100Y
B17: 277F1F8 (antibody, V domains shown)
VH: B1 VH with A9P, L34M, Y52N, N57G, T58N, T97A, Y107F
VL: B1 VL with K14T, R18K, F30L, N97D, W99R
B18: 196A12B10 (antibody, V domains shown)
VH: QIQWVQSGPELKKPRETVKISCKASGYTFTDYSMHWVKQAPGKGLKWMGWINSETGEATYADDFRGRFALSLETSATTAFLQINSLKNEDTGTYFCARFYYGNSFASWGQGTTLTVSS
VL: DIVMTQFPSSLTVTAGEKVTMTCKSSQSLLNGGNQKNYLTWYQQKPGLPPKLLIYWASTRESGVPDRFTGSGSGTEFTLTISSVQAEDLAVYYCQNNYYFPLTFGAGTKLELK
B19: 279E8B8 (antibody, V domains shown)
VH: QAYLQQSGAELVRSGASVKISCKASGYTFASHNMHWVKQTPGQGLEWIGYIYPGNGGTKYNQKFTGKATLSADTSSSTAYLQISSLTSEDSAVYFCARDYFGNSFVYWGQGTLVTVSA
VL: B1 VL with R18K, S22R, F30L, E87D, N97D, W99M, F100Y
B20: 280F3B6 (antibody, V domains shown)
VH: B1 VH with L34M, N57G
VL: B1 VL with N97D, F100Y
B21: 286C7F11 (antibody, V domains shown)
VH: QVQLKESGPGLVAPSQSLSITCTVSGFSLTDYGVSWIRQPPGKGLEWLGVIWNRGNTYYNSALKSRLSISKDNSKSQVFLRMNSLQTDDTAMYYCAKHDFLRFLDYWGQGTTLTVSS
VL: DVVMTQSPSSLTVTAGEKVTMSCKSSQSLLNSGNQKNYLTWYQQKPGQPPKILIYWASTRESGVPDRFTGSGSGTDFSLTITSVQAEDLAVYYCLNDYYYPLTFGAGTKLELK
B22: 292D9C7 (antibody, V domains shown)
VH: B21 VH with N53G, R54G, T57A, R81K, Q86R, H98N, D99G, F100L, F103Y, T111S
VL: B21 VL with V2T, I52L, T75R, S78T, T82S, A86V, V91I, L95Q, L110V
B23: 370E2B12C3 (antibody, V domains shown)
VH: QVQLKESGPGLVAPSQSLSITCTVSGFSLTTYGVHWVRQPPGKGLEWLGVIWAGGSTNYNSALMSRVSINKDNSKSQVFIKMNSLQADDTALYYCARAAYYGNGLDYWGQGTTLTVSS
VL: DIVMTQSPSSLTVTAGEKVTMSCKSSQTLLNSGNQKNYLTWYQQKPGQPPKLLIYWASTGESGVPDRFTGSGSGTDFTLTISSVQAEDLAVYFCQNAYFYPFTFGGGTKLEIK
B24: 391F1G2 (antibody, V domains shown)
VH: DVQLVESGGGLVQPGGSRKLSCAASGFTFSSFGMHWVRQAPEKGLEWVAYISSGSSPIYYADTVKGRFTISRDNPKNTLFLQMTSLRSEDTAMYFCARIYYGNSFAYWGQGTLVTVSA
VL: B23 VL with T20A, I54L, G60R, F93Y, F99Y, F102L, G106S, I112L
B25: 391H11H3 (antibody, V domains shown)
VH: B24 VH with S31G, V37I, A40T, S56R, K65Q, I99F, A106D, Y107H, A118S
VL: B4 VL with S10F, N24K, S59T, T83S, V91L, D97A, R109K
B26: 392A11C8 (antibody, V domains shown)
VH: B24 VH with S31G, V37I, A40T, S56R, I99F, A106D, Y107H
VL: B4 VL with S10F, N24R, S59T, T83S, V91L, D97A, R109K
B27: 392C2F10 (antibody, V domains shown)
VH: EVQLQQSGPELVKPGASMKISCKASGYSFTGYTMNWVKQSLGKNLEWIGLINPFNGGTTYNQKFKGKATLTVDKSSSTAYMELLSLTSDDSAVYYCTRGDYWGQGTTLTVSS
VL: DIVMTQSPSSLTVTAGEKVTMSCKSSQSLLNSGNQKNYLTWYQQKPGQPPKLLIYWASTRESGVPDRFAGSGSGTDFTLTISSVQAEDLAVYYCQSDYSYPTFGAGTKLELK

Biological target: Claudin18.2-His protein (human)
Test: indirect ELISA on coated Claudin18.2-His

Binder	EC50 [µg/mL]
B1	0.0198
B2	0.0438
B3	0.0153
B4	0.0197
B5	0.0151
B6	0.0358
B7	0.014
B8	0.0113
B9	0.0183
B10	0.0168
B11	0.0113
B12	0.00822
B13	0.0201
B14	0.0233
B15	0.028
B16	0.0245
B17	0.0158
B18	0.0192
B19	0.0201
B20	0.012
B21	0.0155
B22	0.0232
B23	0.0156
B24	0.00836
B25	0.0162
B26	0.021
B27	0.0153
